# Results taken from the nanobody polyreactivity screen of Harvey et al. (2022).
# Assay: yeast display, Sf9 membrane polyspecificity reagent, FACS + sequencing; frameworks hold sequencing errors
# Procedure, shortened: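 Nanobodies from a synthetic yeast display library (Saccharomyces cerevisiae BJ5465), induced 36–48 hours with galactose, were stained 1 hour at 4 °C with 10% biotinylated, detergent-solubilized Sf9 membrane reagent, enriched on streptavidin microbeads, then FACS-sorted. Anti-HA (expression) and streptavidin (reagent binding) fluorescence set low and high (top ~1%) gates. Polyreactivity labels come from the gate of origin. Genes were colony-PCR amplified, MiSeq 2 × 250 sequenced and filtered by CDR length.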
sequence,measurement,value
QVQLVESGGGLVQAGGSLRLTCAASGSTFYVYAMGWYRQAPGKERELVAAIDDSGDRTYYADSVKGRFTISRDNAKNTVYLQMNSLKPEDTAVYYCAAEYDSWEYDYWGQGTQVTVSS,polyreactivity (PSR sort gate),low polyreactivity
QVQLVESGGGLVQAGGSLRLTCAASGSTYTGYAMGWYRQAPGKERELVAAISISGGRTFYADSVKGRFTISRDNAKNTVYLQMNSLKPEDTAVYYCAAYLRGSKYSFDYWGQGTQVTVSS,polyreactivity (PSR sort gate),high polyreactivity
QVQLVESGGGLVQAGGSLRLTCAASGYIFGVYAMGWYRQAPGKERELVATISSGGSTNYADSVKGRFTISRDNAKNTVYLQMNSLKPEDTAVYYCAAERYWTYYSGFVYGGDNYWGQGTQVTVSS,polyreactivity (PSR sort gate),low polyreactivity
QVQLVESGGGLVQAGGSLRLTCAASGYIFNQYTMGWYRQAPGKERELDADISSGGSTKYADSVKVRFTISRDNAKNTVYLQMISRKAEDTAFYYCNAEYVYGYPTAYDWEYDYWGQGTQVTLSS,polyreactivity (PSR sort gate),high polyreactivity
QVQLVESGGGLVQAGGSLRLTCAASGYIQPKNTMGWYRQAPGKERELVAAISWSGGSTFYADSVKGRFTISRDNAKNTVYLKMNSLKPVDTAVYYCAADRSWSWYYRYDYWGQGTQVTLSS,polyreactivity (PSR sort gate),low polyreactivity
QVQLVESGGGLVQAGGSLRLTCAASGYTIIQYAMGWYRQAPGKERELVAGITWSGGSTYADSVKGRFTISRDNAKNTVYLQMNSLKPEATAVYYCAADDRDIYQYGTPYGSGIRYDYWGQGTQVTVSS,polyreactivity (PSR sort gate),low polyreactivity
QVQLVESGGGLVQAGGSLRLTCAATGSTLYFYAMGWYRQAPGKERELVASISGTGGRTDYADSVKGRFTISRDNAKNTVYLQMNSLKPEDTAVYYCAADLIRRYGDGYWGQGTQVTVSS,polyreactivity (PSR sort gate),high polyreactivity
QVQLVESGGGLVQAGGSLRLTCAPSRSIFVAYTMGWYRQAPGKERELVAAISRGGSTNYADSVKGRFTISRDNAKNTVYLQMNSLTPEETAVYYCAAKVWDGQLLYYWGQGTQVTVSS,polyreactivity (PSR sort gate),low polyreactivity
QVQLVESGGGLVQAGGSLRLTCASSGITFGSYAMGWYTQAPGKERELVAAITWRGGSTFYADSVKGRFTISRDNAKITVYLQMNSLKPEDTAVYYCAATLTKYLPRYYWGHGTQVTVSS,polyreactivity (PSR sort gate),low polyreactivity
QVQLVESGGGLVQAGGSLRLTCGASGFTFDSYAMGWSRQEPGKERELVAAISTIGGRTYYADSVKGRFTISRDNAKNTVYLQMNSLKPEDTAVYYCAAEQGTPSTNWYDYWGQGTQVTVSS,polyreactivity (PSR sort gate),low polyreactivity
QVQLVESGGGLVQAGGSLRLTCGASGRIFRGYAMGCSRQAPGKERELVASISGGDSTYADSVKGRYTISRDNAKNTVYLQINSLKPEDTSVYYWAASSWYPALREYWGQGTQVSVSS,polyreactivity (PSR sort gate),low polyreactivity
QVQLVESGGGLVQAGGSLRLTCPASGSTFHGYDMGCYRQAPGKERELVAAITSSGDDTYYADSVKGRFTISRDNAKNTVYLQMNSLKPEDTAVYYCAAEYTEGYTHDYWGQGSQVTVSS,polyreactivity (PSR sort gate),low polyreactivity
QVQLVESGGGLVQAGGSLRLTCSASGSTFPSNSMGGYRQAPGKERELVAAITFRGGRTYYADSVKGRFTISRDNAKNTVYLQMNSLIPEDTAVYYCAAERWWYTVRGYGYWGQGTQVTVSS,polyreactivity (PSR sort gate),high polyreactivity
QVQLVESGGGLVQAGGSLRLTFAASGSTFDYYAMGWYRQAPGKERELVAGITSDGSTYYADSVKGRFTISRDNAKNTVYLQMNSLKPEDTAVYYCDVDVDPVFYTTYYYSYYYWGQGTQVTVSS,polyreactivity (PSR sort gate),low polyreactivity
QVQLVESGGGLVQAGGSLRLTSAASGRTFTSNVMGWYSQAPGKEWEVVAAISSSGGRTYYADSVKGRFTISRDNAKNTVYLQMNSLKPEDTAVYYCAGDGDPEYPRYGYWGKGTQVTVSS,polyreactivity (PSR sort gate),high polyreactivity
QVQLVESGGGLVQAGGSLRLTSAASGSTIDYYAMGWYRQAPGKERELVARISKRGGSTYYADSVKGRFTISRDNAKYTVYLQMNSLKPEDTAVYFCAKRVRISYTNYHFDYWGQCTQVTVSS,polyreactivity (PSR sort gate),high polyreactivity
QVQLVESGGGLVQAGGSLRRSCAASGSTFTTYAMGWYRQAPGKERELGAAITSVGSTYYEDSVKGRCTISRDNAKNTVYLQLNSLKPEDTAVYYCNVVYRDQYNDWGQGTQVTVSW,polyreactivity (PSR sort gate),low polyreactivity
QVQLVESGGGLVQAGGSLRSSCAASGGTFYGYAMGWYRQAPGKERELVAAISFSGGRTYYADSVKGSFTISRDNAKNTVYLQMNSLKPEDTAVYYCAALRRYPRPNIYGYWGQGTQVTVSS,polyreactivity (PSR sort gate),low polyreactivity
QVQLVESGGGLVQAGGSLRVICAASGSTFSGNAMGWSRKAPGKERELVAAISRRGGRTYYADSVKGRFTISRDNAKNTVFLQMNRLKPEDTAVYYCAATSGVYRVGIIKYDYWGQGTQVTVSS,polyreactivity (PSR sort gate),high polyreactivity
QVQLVESGGGLVQAGGSLRVSCAASGFISGYYTMRWYRQAPGKEWELVAVINSGGSTYYADSVKGRFTISRDNAKNTVYLQMNSLKPEDTAVYYCAKLGGKYSRYYYWGQGTQVTVSS,polyreactivity (PSR sort gate),low polyreactivity
QVQLVESGGGLVQAGGSLRVSCAASGFTFNYYAMGWYRQAAGKERELVAAISKDGTRTYYADSVKGRFTISRDNAKNTVYLQMNRQKPEDTAVYYCAAKASPAGSNYWGQGTQVTVSS,polyreactivity (PSR sort gate),high polyreactivity
QVQLVESGGGLVQAGGSLRVSCAASGFTFSYYVMGWYRQAPGKERELVAAITTSGSGTYYADSVKGRFTISRDNAKNTVYLQMNSLKPEDTAVYYCAARPYRGFVSRYGYWGQGTQVTVSS,polyreactivity (PSR sort gate),low polyreactivity
QVQLVESGGGLVQAGGSLRVSCAASGFTFVGTAMGWYRQAPGKERELVAAITWSGGRTYYADSVKGRFTISRDKAKNTVYLQMNSLTPEDTAVYYCATRWRGRMDYWGQGTQVTVSS,polyreactivity (PSR sort gate),high polyreactivity
QVQLVESGGGLVQAGGSLRVSCAASGGTFCNYAMGWNRQAPGKERELVAAITSGGGSTYYADSVKGRFTISRDIAKNTVYLQMNSLKPEDTAVYYCAARRSSYGYWGQGTQVTVSS,polyreactivity (PSR sort gate),high polyreactivity
QVQLVESGGGLVQAGGSLRVSCAASGITFNEYAMGWYRQAPGKEREFVAAITFSGDSTYADSVKGRFTISRDNAKNTVYLQMNSLKPEDTAVYYCAKRGGRQTYYYWGQGTQVTVSS,polyreactivity (PSR sort gate),high polyreactivity
QVQLVESGGGLVQAGGSLRVSCAASGLNFYGNAMGWYRQAPGKERELVAAISWSGGNTSYADSVKGRFTISRDNAKNTVYLQMNSLKPDDTAVYYCNADSLPSVERYGYWGQGTQVTVSS,polyreactivity (PSR sort gate),low polyreactivity
QVQLVESGGGLVQAGGSLRVSCAASGLTFKYNALGWYIQAPGKERELVASISSGSTNYADSVKGRFTISRDNAKNSVYLEMNSLKPEDTSVYYCAASVSRGKRFRYGYVFKMDYWGQGTQLTVSS,polyreactivity (PSR sort gate),low polyreactivity
QVQLVESGGGLVQAGGSLRVSCAASGNIFYYYAKGWSRQAPGKERELDAAISKRGGSTYYADSVKGRFTISRDIAKNTVYLQMNSLKTEVTAVYYCAADGGYADYDYWGQGTQVTVSS,polyreactivity (PSR sort gate),high polyreactivity
QVQLVESGGGLVQAGGSLRVSCAASGRIFFRNAMGWYRQAPGKESELVAAITRGGGSTYYADSVKGRFTISRDNATNTVYLQMNSLKPEDTEVYYCAAGAGYSLYSAYDYWGQGTQVTVSS,polyreactivity (PSR sort gate),low polyreactivity
QVQLVESGGGLVQAGGSLRVSCAASGRIFTQYATGWYRQAPAKEREMVAAINASDGSTYADSVKGRFTISRDNAKNSVYVQMNSLNPEDSAVYYCNVTGGPYDFTRWSDFDHWGQGTQVTVSS,polyreactivity (PSR sort gate),low polyreactivity
QVQLVESGGGLVQAGGSLRVSCAASGRILNPNAMGWYRQAPGKERELVADISSGGSTYADSVKGRFTISRDNAKNTVYLQMNSLKPEDTAVYYCAKPGYEEFYREYDSWGQGTQVNVSS,polyreactivity (PSR sort gate),low polyreactivity
QVQLVESGGGLVQAGGSLRVSCAASGRTFKKYTMGLYRQAAGKERELVPVITSGGSTYYADSVKGRFTISRDNAKNTVYLQMNSLKPEDTAVYYWAADLYYNSYGRYGRYYYWGQGTQVTVSS,polyreactivity (PSR sort gate),high polyreactivity
